PMC7969031

Experiments:
[1] = target: Cas2 of the Synechocystis sp. PCC6803 type I-D CRISPR-Cas system, untagged (Synechocystis sp. PCC6803); experiment: crystal structure
[2] = target: Cas1 of the Synechocystis sp. PCC6803 type I-D CRISPR-Cas system, untagged (Synechocystis sp. PCC6803); experiment: negative-stain electron microscopy
[3] = target: Cas1 of the Synechocystis sp. PCC6803 type I-D CRISPR-Cas system, untagged (Synechocystis sp. PCC6803); experiment: crystal structure
[4] = target: Cas4 of the Synechocystis sp. PCC6803 type I-D CRISPR-Cas system, untagged (Synechocystis sp. PCC6803); experiment: SEC-MALS
Cas1 (type I-D) = target: T1, Cas1 (type I-D) (Synechocystis sp. PCC6803, UniProt Q6ZEI2 1-325); experiment: EMSA
T1 sequence: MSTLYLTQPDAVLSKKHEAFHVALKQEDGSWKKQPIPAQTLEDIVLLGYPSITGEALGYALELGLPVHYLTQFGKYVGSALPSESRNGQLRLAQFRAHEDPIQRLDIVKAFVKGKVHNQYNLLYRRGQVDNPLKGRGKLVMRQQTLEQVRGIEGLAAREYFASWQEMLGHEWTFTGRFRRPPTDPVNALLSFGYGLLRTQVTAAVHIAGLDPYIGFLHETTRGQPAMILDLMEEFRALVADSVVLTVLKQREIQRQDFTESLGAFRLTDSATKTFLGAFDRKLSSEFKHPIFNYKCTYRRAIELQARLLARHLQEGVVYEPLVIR

[5] = target: T2, Cas1 (type I-D);Cas2 (type I-D) (Synechocystis sp. PCC6803;Synechocystis …, UniProt Q6ZEI2;Q6ZEI1 1-325;1-94, |); experiment: EMSA
T2 sequence 1: T1 sequence
T2 sequence 2: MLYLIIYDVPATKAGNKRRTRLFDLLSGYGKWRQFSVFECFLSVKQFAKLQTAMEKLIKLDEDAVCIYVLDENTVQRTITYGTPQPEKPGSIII

[6] = target: T2, Cas1 (type I-D);Cas2 (type I-D); experiment: X-ray crystal structure
[7] = target: T2, Cas1 (type I-D);Cas2 (type I-D); experiment: X-ray crystal structure; remark: listed apart in the source

Question: For “Cas2 of the Synechocystis sp. PCC6803 type I-D CRISPR-Cas system, untagged (natural protein)”, which stoichiometry N [1] is on record?
Answer: 2

Question: Which results are given for “Cas1 of the Synechocystis sp. PCC6803 type I-D CRISPR-Cas system, untagged (natural protein)”?
Answer: stoichiometry N [2]: 2; stoichiometry N [3]: 2; stoichiometry N (Cas1 per Cas4) [4]: 2

B1: dsDNA EMSA substrate (dsDNA)
DNA 1: TGTGCCCCTGGCGGTCGCTTTCTTTTT
DNA 2: AAAAAGAAAGCGACCGCCAGGGGCACA
Question: Does B1 bind (Cas1 (type I-D))?
Answer: binds

Question: Does B1 bind [5]?
Answer: binds

B2: 22-7-7 double-forked prespacer (dsDNA)
DNA 1: TTTTTTTTGTGCCCCTGGCGGTCGCTTTCTTTTTTT
DNA 2: TTTTTTTGAAAGCGACCGCCAGGGGCACATTTTTTT
Question: Does B2 bind [6]?
Answer: binds

B3: 26-5-5 double-forked prespacer (dsDNA)
DNA 1: TTTTTTTGTGCCCCTGGCGGTCGCTTTCAAGTTTTT
DNA 2: TTTTTCTTGAAAGCGACCGCCAGGGGCACAATTTTT
Question: Does B3 bind [7]?
Answer: binds
